In patent US8889130B2, “Treatment of osteoarthritis and pain” (Abbvie Inc., priority 2011, dated 2014):

B1: 10G11: mouse anti-mouse IL-1β monoclonal antibody (clone 10G11) from IL-1α/β double KO mice (antibody, V domains shown)
VH: EVQLQQSGPELVKPGTSVKMSCKTSGYTFTSYVMHWVKQKPGQGLEWIGYIIPYNDNTKYNEKFKGKATLTSDKSSSTAYMELSSLTSEDSAVYYCARRNEYYGSSFFDYWGQGTTLTVSS
VL: DIQMTQSPASLSASVGETVTITCRGSGILHNYLVWYQQKQGKSPQLLVYSAKILADGVPSRFSGSGSGTQYSLKINSLQPEDFGSYYCQHFWSTPFTFGSGTKLEIKR
modifications: heavy chain variable domain of 10G11; light chain variable domain of 10G11
notes: mouse anti-mouse IL-1β monoclonal antibody (clone 10G11) from IL-1α/β double KO mice
B2: DVD2-Ig: DVD-Ig as DVD1-Ig but with linkers ADAAP (light chain) and AKTTPP (heavy chain) (antibody)
VH: MQLSGLTSEDSAMYFCVRFPTGNDYYAMDYWGQGTSVTVSSAKTTPPQIQLVQSGPELKKPGETVKISCKASGYTFRNYGMNWVKQAPGKDLKRMAWINTYTGESTYADDFKGRFAFSLETSASTAYLQINNLKNEDTATYFCARGIYYYGSSYAMDYWGQGTSVTVSS
VL: PVEADDAATYYCQQNNEDPFTFGSGTKLEIKRADAAPNIQMTQTTSSLSASLGDRVTISCRASQDISNCLNWYQQKPDGTVKLLIYYTSRLHSGVPSRFSGSGSGTDYSLTISNLEQEDIATYFCQQGKTLPYAFGGGTKLEINR

Key:
mice (female BALB/c) = test: Mouse carrageenan-induced inflammatory pain model, thermal hyperalgesia (paw withdrawal latency); format: in vivo; conditions: Example 8; 48 and 96 hours; single mAb 900 μg; diclofenac 30 mg/kg
Description: To evaluate whether neutralization of IL-1α and IL-1β produces antinociceptive effects in inflammatory pain conditions, anti-IL-1α and anti-IL-1β mAbs were evaluated for the ability to reverse established pain in the mouse carrageenan paw model of nociceptive pain.
The efficacy of the anti-IL-1α and anti-IL-1β mAbs was evaluated when administered alone or in combination in the mouse carrageenan model (FIG. 15). At 30 hours after intraplantar carrageenan injection: 900 μg of either anti-IL-1α mAb, anti-IL-1β mAb, or their combination were administered in different groups of mice. Thermal hyperalgesia testing was performed 48 and 96 hours after carrageenan. […] The antinociceptive effect in 900 μg combination group was 53±7% at 48 hours, and 82±11% at 96 hours.
Different groups of animals were treated either with vehicle or a combination of anti-IL-1α and anti-IL-1β mAbs (100, 300, or 900 μg/mouse of each mAb) 30 hours after carrageenan injection. […] The antinociceptive effect in 900 μg treatment group was 70±9% at 48 hours, and 62±4% at 96 hours. Diclofenac (30 mg/kg), a non-steroidal, anti-inflammatory analgesic, was included as positive control in the study, and it increased the mean paw withdrawal latency of the injured paw to 7.01±0.58 s at 48 hours and 7.48±0.34 s at 96 hours when administered p.o. 60 minutes before testing (p<0.01 at both time points).

male DBA-1 mice = test: Collagen-induced arthritis mouse model (rheumatoid arthritis); format: in vivo; conditions: therapeutic mode; 1-3 mg/kg intraperitoneally every other day after disease onset
Description: The therapeutic effects of anti-IL-1α, anti-IL-1β, combined anti-IL-1α/anti-IL-1β, and murine IL-1α/β DVD4-Ig, were evaluated in a collagen-induced arthritis mouse model well known in the art. Briefly, male DBA-1 mice were immunized with bovine type II collagen in CFA at the base of the tail. The mice were boosted with Zymosan intraperitoneally (i.p) at day 21. After disease onset at day 24-27, mice were selected and divided into separate groups of 10 mice each. […] To neutralize IL-1, mice were injected every other day with 1-3 mg/kg of anti-IL-1α mAb, anti-IL-1βmAb, combination of anti-IL-1α and anti-IL-1β mAbs, or murine IL-1α/β DVD4-Ig intraperitoneally. Mice were carefully examined three times a week for the visual appearance of arthritis in peripheral joints, and scores for disease activity determined.

[1] = system: IL-1α, IL-1β, or both IL-1α and IL-1β; test: Functional homogeneity: antigen binding in solution by SEC; conditions: 120-minute incubation at 37° C. with antigen in equal molar ratio
Description: Because DVD2-Ig binding protein was purified by Protein A chromatography instead of target-specific affinity chromatography, any potential misfolded and/or mismatched VL/VH domains, if present, can be assessed by binding studies against the two different antigens. Such binding analysis was conduced by size exclusion liquid chromatography (SEC). DVD2-Ig binding protein, alone or after a 120-minute incubation period at 37° C. with IL-1α, IL-1β, or both IL-1α and IL-1β, in equal molar ratio, were applied to the column. Each of the antigens was also run alone as controls. […] In the presence of both IL-1α and IL-1β, there was a further and complete shift of the DVD2-Ig binding protein signal, indicating all DVD2-Ig molecules were able to bind both antigens in a uniform fashion.

Molecule	thermal hyperalgesia / antinociceptive effect (mice (female BALB/c))	reduction in mean arthritis score compared to control group (male DBA-1 mice)	shift of the DVD2-Ig binding protein SEC signal in complex with antigen [1]
B1	no significant antinociceptive effect	24%	–
B2	–	–	100%
